The test deals with native mapacalcine (Cliona vastifica) (UniProt P86916). The experiment in a line: MALDI-MS.

For orientation: stoichiometry N means a count of units in the complex or per binding partner. Consider “native mapacalcine (from UniProt P86916 1-89) (natural protein)”, for which the stoichiometry N came out at 2.
